Laboratory results reported in patent US20160355836.
Numbering of substitutions follows the chain as printed.

Key:
GST-PT8-CTS517A = system: T1, GST-PT8-CTS517A
T1 sequence: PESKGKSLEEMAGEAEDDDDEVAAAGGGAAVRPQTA

GST-PT8-CTS512A = system: T2, GST-PT8-CTS512A
T2 sequence: T1 sequence with S7A, A12S

[1] = system: T3, GST-PT8-CTS517 (not phosphorylated)
T3 sequence: T1 sequence with A12S

GST-CK2α3
in vitro phosphorylation assay ([γ-32P]ATP) (GST-PT8-CTS517A): Mutation of S517, but not S512, prevented phosphorylation of PT8-CT | in vitro phosphorylation assay ([γ-32P]ATP) (GST-PT8-CTS512A): Mutation of S517, but not S512, prevented phosphorylation of PT8-CT | in vitro phosphorylation assay ([γ-32P]ATP) [1]: the PT8-CT was phosphorylated by the catalytic subunit CK2 α3
